The results in this text go back to the DeepSol protein solubility set.

This series in a line: soluble on expression in E. coli; label from the status in PepcDB or PDB records.
Take “MERRSTDLLVLGAGVAGVYAALAAEERGARVLLVSKDPLPAGSTPWAQGGVAFPVGEEDLEAHLRDTLVAGRGLVEEGVARSILEEAPRHLERLRAFGLPFHPEPTREGGHSRARVFHLGGDRSGLLLLEGLLKRLSTPVVPAQALSLLVSGNRVAGALLWGPGGLWEVRAGAVLLATGGFGRLFPVTTNPHGATGDGMALAWRAGAVLRDLEFVQFHPTALPNGALVSEACRGEGALLLNAHGERFMPRYDPLAELAPRDVVARAVFRERERTGGVYLDLRPIPHLEERFPTVVAQARALGLDPLRAPLPVAPAAHYAMGGVRTDAFGHTGIPGLFAAGEVASTGFHGANRLASNSLLEGLVVGWRAALRALEDLAFPPRATPLPALAAPPEAVASLREEAGEALGVVRRKETLLAFLRRAEAVPLEEVEQASRDRLEAGSLLLLMRLLARAALAREESRGAHFREDFPLEDRPRHSLFQGWRLGFLPVGVE”: the “soluble on expression in E. coli” value is “soluble”.
For “MGSDKIHHHHHHMSNNKCITVIGGVYIERYAWPHWDELYGSGGRALSVLQSLGCATKLYSCLNKDSANILQARAGIYKTSFEICSSLKESYRPIKFHYLHGLSTPQISAITTEFAQQNEIIEDNILVFGMLEGNPTISGNKVVYDPQNPISPKDFSENGSTANELAIVLNTNEAYKLIKNRNLSLDEIAYELIKNKAKVVIIKQGVRGVNIYQKLNDRYIKKDSVPCYFTKNVWKIGSGDCFSAHFAYQWIYEGKTPTEAAELASKATAYYCETRGYPSFEEFTNWKNRVQPITHRHSEKKVTVYLAGPFFTLSQIWLINETRRLLSEMGLIVFSPYHEIGTGDAIMVVPKDIDGINNSDIIFAIFDGKDSGTIFEIGYATAKNKPVIVYNENEKSEDLKMMEGTDCIVIKDYVSAIYRTLWESQKL”, the “soluble on expression in E. coli” value is recorded as “not soluble”.
Next, “MHEPMKTLKNIHAEIRICQKFPKSTVQKRFSEFEELIKAASKNARNWKPISSVELFQGDSSLNELFEKLVIGTCELRDGELFENVNDLTINPSNIHVYKLHKDGPLSQNIGDDDGDESIIGSQLWQLPCVEFDSIWENLIYDSNLKNEVMSYVAALARLSEKHVNTKIINVNRLILLTGPPGTGKTSLCKGLAQHLSIRMNDKYSKSVMLEINSHSLFSKWFSESGKLVQKMFDQIDELAEDEKCMVFVLIDEVESLGMCRESSSSRSEPSDAIRAVNALLTQIDRIRRRDNVLILCTSNLESTLDKALVDRADIVKNVGQPSDFARYSMLKSSIMELARIGVVIDNEVHTDYWPQDICDTKAPRNEFTEILFKIAQEARGLSGRAISMLPTLVYSKSPEETITLPNCMNLFLEAVKERLSRNN”: “not soluble”; “HQQLNSLPTMEGPPTFNPPVPYFGRLQGGLTARRTIIIKGYVPPTGKSFAINFKVGSSGDIALHINPRMGNGTVVRNSLLNGSWGSEEKKITHNPFGPGQFFDLSIRCGLDRFKVYANGQHLFDFAHRLSAFQRVDTLEIQGDVTLSYVQI”: “soluble”; “MNCRPGCGACCIAISISSPIPGMPRGKPAGVPCVQLRDDMECAIFGRPERPACCSGLRPSDEMCGGDRSHAMTWLARLEQATLPAAENTPHRPPLEHHHHHH”: “not soluble”.
For “MGLPAHHIDAFLDRLRTAHYSEVSLRKKRRVLCAFSGWMKHRNIDLIDLDESVTARFMKRMIDASRDRVQRARPTLRQFLAYLRAEAIVCSPTLGSQSAIAHTYRRYLDYLRQDRGLAKNSLLVYGPFIRDFLDSHSAGDGSLLPDAFDAVTIRNHLLARSKGRSAEYTRLMAVALRSFCHFLFLRGDTARDLAGSVPSVRKWRQSTVPTFLTPEQQEALIASADRSTPTGLRDYAILLLLARLGLRAGEIIEIELDDIHWRSGELVVHGKGQMVEHVPLSSEVGAAIATYLRDGRGASASRRVFLRRLAPRVGLAGPAAIGKIVCQAFARVGFRPACRGAAHLFRHGLATTMIRHGASMAEIAEVLRHRSPDSTAIYAKVAFEDLRGVARSWPTAGGAILEHHHHHH”, the “soluble on expression in E. coli” value is given as “soluble”.
Consider “MAEHGETQADEEEEEQVWSWGAGTDGQLGTTKLQDELLPQLLSLTSLPSISMLACGGAHVIALTSGGKVFTWGRGSSGQLGHGDILNITLPKLVSFFDDSVITQAAAGWSHSGFVSDSGCIFTCGNGSFGQLGHGDTLSLSTPAKVSHFNNDSVKMVACGMRHSLVLFAGNQVCGFGSGKRGQLGFSSDRIKSVNLPCVVSGLKDVEVVRISANGDHSAAISADGQFFSWGRGFCGGPDVHAPQSLPSPLSFREVAVGWNHALLLTVDGEVFKLGSTLNKQPEKQQLQIDSSEALFEKVPDFDGVKVMQIAAGAEHSAAVTENGEVKTWGWGEHGQLGLGNTNDQTSPELVSLGSIDLRTKEIKVYCGSGFTYAVKRKQELSPTSS”, for which the “soluble on expression in E. coli” value was “soluble”.
Next, “MSTELIAAVEAADSAEGLVRAVAALSAARTDAAIPTLISVLAFNNPGAAVVAVDGLIQLGSPAAQAILNNLDDYNYGARAWALRALAGIGEPAALPLLLSAAREDFSLSVRRAATYGLGRVRWADLSESDRLAQQQQCYETLKLCLQYDPEWVVRYAAAAALETLAPAATQLQSAIAETLNRQAHSDEERAVQARSRLAERRLAGGVLEHHHHHH”: “soluble”.
Next, “MGSDKIHHHHHHMKHIHIIGIGGTFMGGIAAIAKEAGFEVSGCDAKMYPPMSTQLEALGIGVYEGFDTAQLDEFKADVYVIGNVAKRGMDVVEAILNRGLPYISGPQWLAENVLHHHWVLGVAGTHGKTTTASMLAWVLEYAGLAPGFLIGGVPENFSVSARLPQTPRQDPNSQSPFFVIEADEYDTAFFDKRSKFVHYRPRTAVLNNLEFDHADIFADLGAIQTQFHHLVRTVPSEGLIVCNGRQQSLQDTLDKGCWTPVEKFGTEHGWQAGEANADGSFDVLLDGKKAGHVAWSLMGGHNRMNALAVIAAARHAGVDIQTACEALSTFKNVKRRMEIKGTANGITVYDDFAHHPTAIETTIQGLRQRVGGARILAVLEPRSNTMKLGTMKAALPASLKEADQVFCYAGGADWDVAEALAPLGGRLHVGKDFDAFVAEIVKNAEAGDHILVMSNGGFGGIHTKLLDALR”: “not soluble”; “MSLSLTPLSEKLRPNNLDTFIGQNHLLERLQYIISAPRLPSMLFFGPPGCGKSTLALLLAYKKSTNILRISAPETGIQQLRQKLTDIDILILDEIHRFSKAQQDFFLPLLESGKLTMLATTTENPSFSVTKQLLSRLNVLQLRQLGYNELKELVKKGTLFLNILLPDDVINFLATTAHGDARTLFNLIEYISILPEEKRVLEYIKINLPEILERHDKDGDSHYEYASALIKSIRGSNPDAALYYLACLLEGGEDPRFICRRLIISASEDIGLADPQALSLAVSCQQAVEFVGMPEGFIPLSETVVYLALARKSNSTYAAYSNAAREVRLHGAQPVPLHLRNPSTQLQKQWGYGREYKYPHNYPNAWVEQEYFPSTISNRSFYYPKEQGEEPKLNMWHNHIKKKYSEGHHHHHH”: “not soluble”; “MLSEQKEIAMQVSGMTCAACAARIEKGLKRMPGVTDANVNLATETVNVIYDPAETGTAAIQEKIEKLGYHVVTEKAEFDIEGMTCAACANRIEKRLNKIEGVANAPVNFALETVTVEYNPKEASVSDLKEAVDKLGYKLKLKGEQDSIEGR”: “soluble”.
The entry for “MNLRKPSAWTALALSISTGPAAAGTVTSATLAASTLSPDCLEYKVVGICYWLLCTPFGCKVKTSTKVRHYVPDAVVSSYSNTGENPWVEVSSLSSPTSFAQDGGDGTTSHNNEDNLAKFKNTDVIGHPGGATFSKFASASGYACQGAATPYMPYLLSTLDTIAWRYGVPESAYPEALIPGQREVGGLTSGDMWGSLYPRSGFIHQADDYKAAAVIAQRAGDVVTRRGQIHIYQPLLAKPQSGYWPAGELIETDASTGKWQELTPTLSQSCAVFPNSQPRVQATDGGYAWALWRPYSCCKRQGQTFLGSTDFQLEHHHHHH” is “not soluble”; for “MAHHHHHHSLNTNLKPKLQRFASATAFACPICQENLTLLETNFKCCNRHSFDLAKFGYVNLAPQIKQSANYDKENFQNRQQILEAGFYQAILDAVSDLLASSKTTTTILDIGCGEGFYSRKLQESHSEKTFYAFDISKDSVQIAAKSEPNWAVNWFVGDLARLPIKDASMDILLDIFSPANYGEFRRVLSKDGILIKVIPTENHLKEIRQRVQDQLTNKEYSNQDIKEHFQEHFTILSSQTASLTKTITAEQLQALLSMTPLLFHVDQSKIDWSQLTEITIEAEILVGKAFEG” it is “soluble”.
For the sequence “MVTFKPKVLHFVNATNLNQVDGTGTIVNEWIKAAGGQNALKQKGNMISVTTETLAKSDPDVIIVGSATTAEARAALKKNAVLSKLTAVKKNRVYGNPQGTFPWDRYSAEEALQVLWAAKKLHPDQFQLEHHHHHH”, the “soluble on expression in E. coli” value is “not soluble”.
Next, “MAHHHHHHMSCITGITYLSSADINALSKGAGAGSSSGSRGTFVVREGDYVTGTITNVQGGSTPGIRLATSRGVTAFIAAVDICDEAMRVDLLEYIRRSEQLRDWNRHENGDARPPERAEAPVWLRRGALLQGTVSRCVWARCELHLQWCRPREELAGSGDDNGEKETAMPSYGNMERGGASSSVNSLNTAQVEQQVRVFATKMSRHPLFRDVSKNGAADMLRDKEIGESLLRPRTASVHRVVCEVKVGSNATNHWVISEERHANGQFYYKVEDRVVDRQWEFTDVDDFLCNFVEPMVKLIQSIRVHRRFEDSTEYVQAALDAQREVSGGFAYAFAETESKRHLYQVYSSGGNETYHFPLHITSEFIYIRLPFFHDGKASNKWVPCKSAEKVSETVKNYARAMSKRSVNGELH”: “soluble”; “AIETETLVVGAGPGGYVAAIRAAQLGQKVTIVEKGNLGGVCLNVGCIPSKALISASHRYEQAKHSEEMGIKAENVTIDFAKVQEWKASVVKKLTGGVEGLLKGNKVEIVKGEAYFVDANTVRVVNGDSAQTYTFKNAIIATGSRPIELPNFKFSNRILDSTGALNLGEVPKSLVVIGGGYIGIELGTAYANFGTKVTILEGAGEILSGFEKQMAAIIKKRLKKKGVEVVTNALAKGAEEREDGVTVTYEANGETKTIDADYVLVTVGRRPNTDELGLEQIGIKMTNRGLIEVDQQCRTSVPNIFAIGDIVPGPALAHKASYEGKVAAEAIAGHPSAVDYVAIPAVVFSDPECASVGYFEQQAKDEGIDVIAAKFPFAANGRALALNDTDGFLKLVVRKEDGVIIGAQIIGPNASDMIAELGLAIEAGMTAEDIALTIHAHPTLGEIAMEAAEVAL”: “soluble”; “MTLKLTYFDIHGLAEPIRLLLADKQVAYEDHRVTYEQWADIKPKMIFGQVPCLLSGDEEIVQSGAIIRHLARLNGLNGSNETETTFIDMFYEGLRDLHTKYTTMIYRNYEDGKAPYIKDVLPGELARLEKLFHTYKNGEHYVIGDKESYADYVLFEELDIHLILTPNALDGVPALKKFHERFAERPNIKAYLNKRAAINPPVNGNGKQ”: “not soluble”.
On to “MEKKTIVLGVIGSDCHAVGNKILDHAFTNAGFNVVNIGVLSPQEVFIKAAIETKADAILLSSLYGQGEIDCKGLRQKCDEAGLEGILLYVGGNIVVGKQHWPDVEKRFKDMGYDRVYAPGTPPEVGIADLKKDLNIE”, for which the “soluble on expression in E. coli” value is recorded as “soluble”.
“MAHHHHHHMSLQAGGVVNGVIPGVVPPHDRTQEVCKYFVNGGCLRGANCPYLHELPDERHLDVNGLGFILNPNVHNAQKTVASPQTQVAASTPSQPLKASGSSFTMMLNNQNASQSRVFSPTKAAKHQPPSMSGSSSASPQTMQMGKLPAPPKYNPPEPYLELNLPPALAFPLKVPAKDTTATLTHLMLQN”: the “soluble on expression in E. coli” value is listed as “not soluble”.
